# B1: OR4K15 (parent)
# chain: GUUAACGGUCAUAGGCCAUGGAAACUAGGAGCACCAUUUCGCUGCCAGUGAAGAAAUGAACAAAGAAAAUCUGGGCCAGGCAGGCAUCAAAAGAAAUAGUCUUGCGCUCAACCAGAAAGUCUGUAAUCAUUUUAAGGGUA
# Variants of: B1
# Assay: self-cleavage, relative activity (ratio to wild type); higher = more cleavage; in vitro, sequencing; the parent is a self-cleaving ribozyme
row,Variant,self-cleavage
1,C46U U130C,1.4
2,C46U U139A,1.41
3,G74U C121A,0.36
4,U37C A82G,0.69
5,U38G C113U,0.07
6,A27G A60G,1.09
7,U2C A118U,0.44
8,C34U G123A,1.87
9,U38C U70A,0.58
10,G31A U139C,1.82
11,C77U A98G,0.88
12,A47U A68G,0.48
13,G73A G79A,0.17
14,U39A U87C,1.53
15,A55C G79A,0.49
16,U120C U122A,0.26
17,A69U U103C,0.51
18,A5G U87C,0.88
19,U38C A89G,1.9
20,A36G A67G,1.7
21,A13G A62G,1.25

row,Variant,self-cleavage
1,A33C U122A,1.61
2,A5G G29C,0.82
3,A18U A92U,1.25
4,A95G G137U,2.07
5,A23G G75A,0.19
6,U87C A126G,0.82
7,C35U A69G,1.1
8,A18G A23G,1.01
9,A24C U120C,1.13
10,A69G U70A,1.26
11,A78G U97G,0.27
12,C17A U108C,0.02
13,A23G A64U,1.2
14,C17U A64G,0.65
15,U127C A134U,1.36
16,A33U A82G,0.88
17,A59G A67G,1.28
18,U102C A111U,0.04
19,A89U U100C,2.55
20,A90U A140U,1.2
21,C6U A134G,1.38

row,Variant,self-cleavage
1,A63G A66G,1.7
2,A60U A140U,1.59
3,G41C A67U,1.8
4,U2A U12C,1.41
5,U2C A96C,1.85
6,A98G C109A,0.03
7,A96G U132A,1.37
8,U3A A78G,0.14
9,G7A U124C,1.03
10,A11G A134G,0.88
11,A62C U108A,0.02
12,A13U A56G,1.44
13,A90G A117G,0.83
14,U43C A86G,1.32
15,G83A U131C,1.28
16,A24G A94G,1.47
17,U43G A54C,1.71
18,G58U A68G,0.92
19,U72C U124C,0.17
20,C6A,1.28
21,A13G A59G,0.59

row,Variant,self-cleavage
1,U57A U108A,0.03
2,A56G U139A,1.41
3,U87C U102A,0.83
4,U39C U87C,1.31
5,G44A A134U,0.73
6,G83U U127C,0.29
7,G80A U102C,0.42
8,A52G U132A,0.88
9,U103C A110G,0.15
10,A56G G115U,0.03
11,A78G U130G,0
12,C101U U108C,0.01
13,U9G,0.92
14,A62U A82G,0.67
15,A89G U108G,0.01
16,A60G A82G,0.21
17,A69G U139A,1.69
18,A78U G93U,0.53
19,A51G U57C,0.93
20,A64U U132C,1.49

# Reference: the RNAGym collection of RNA variant scans (doi:10.7554/elife.90254)
